This note sets out measurements from patent publication US20260232732A1 (FUNDACI INSTITUT DE RECERCA CONTRA LA LEUC MIA JOSEP …, published 2026).

The target in assay [1] is T1, biotin-peptide SMEDYVNFNF (human).
T1 peptide: Biotin-SMEDYVNFNF
In words: ELISA biotin-peptide; scFv 0.3125 ug/mL; repII. Here is the method:
(§1) The peptides were synthesized naked or with a N-terminal Biotin modification with a purity of >98%. All four scFvs were verified by ELISA that can be detected with anti-His antibodies. ELISA was performed for scFv-peptide binding validation. Briefly, naked peptides were coated (50 μg/mL) in 0.58M carbonate-bicarbonate buffer pH9.5, 100 μL/well, 4° C. O/N. Then after blocking (3% BSA-PBS, 300 μL/well 37° C. 1.5 h) and washing (PBS+Tween-20 0.05% v/v (0.05% PBST), wells were incubated with each purified scFv antibody at concentration of 1 μg/mL in PBS at 37° C. 1 h. After washing (0.05% PBST), wells were incubated with secondary antibodies (goat anti-His IgG-HRP) in PBS, 37° C., 30 min. After washing, and incubation with TMB substrate, reactions were stopped with 2M HCl and reading was quantified at OD450.
(§2) ELISA with biotin-conjugated peptides (5 μg/mL) was performed very similar to described above with minor modifications.
(§3) A full curve ELISA was performed for each positive scFv/biotin-peptide pair in order to confirm previous results. Tables 15-17 show ELISA results of the dose-dependent full curve for each positive peptide with scFv “CCR9_HUM”, “Comp-2” and “Comp-3”, respectively.
(In general: An ELISA detects its analyte on a solid surface through an enzyme-linked reagent.)

The target in assay [2] is T2, biotin-peptide MEDYVNFNFT (human).
T2 peptide: Biotin-MEDYVNFNFT
In words: ELISA biotin-peptide; scFv 0.3125 ug/mL; repII. Here is the method:
as §1, §2, §3

For assay [3], the target named is T3, biotin-peptide SSMEDYVNFN (human).
T3 peptide: Biotin-SSMEDYVNFN
The assay can be described thus: ELISA biotin-peptide; scFv 0.3125 ug/mL; repII. Here is the method: as §1, §2, §3

Assay [4] deals with T4, Peptide 3-BSA (SSMEDYVNFN-C conjugated to BSA) (human).
T4 peptide: SSMEDYVNFNC(BSA)
In words: ELISA; Ab 0.03125 ug/mL; repII. The protocol:
(§4) In brief, plates with each non-conjugated peptide (50 μg/mL) or BSA-conjugated peptide (5 μg/mL) were coated in 0.58M carbonate-bicarbonate buffer pH9.5, 100 μL/well, at 4° C. […] After washing, wells were incubated with the 3, 3′,5,5′-Tetramethylbenzidine (TMB) HRP substrate and reactions were stopped with 2M HCl and OD450 was recorded.

Assay [5] has as its target T5, Peptide 4, non-conjugated (SMEDYVNFNF-C) (human).
T5 construct: With the extra C-terminal Cys
T5 peptide: SMEDYVNFNFC
The assay can be described thus: ELISA; Ab 0.03125 ug/mL; repII. The protocol: as §4

The target of assay [6] is T6, Peptide 1-BSA (MADDYGSEST-C conjugated to BSA) (human).
T6 peptide: MADDYGSESTC(BSA)
The assay can be described thus: ELISA; Ab 0.03125 ug/mL; repII. The protocol: as §4

For assay [7], the target named is T7, Peptide 1, non-conjugated (MADDYGSEST-C) (human).
T7 construct: With the extra C-terminal Cys
T7 peptide: MADDYGSESTC
In words: ELISA; Ab 0.03125 ug/mL; repII. Here is the method: as §4

In assay [8] the target is T8, Peptide 2-BSA (GSESTSSMED-C conjugated to BSA) (human).
T8 peptide: GSESTSSMEDC(BSA)
In words: ELISA; Ab 0.03125 ug/mL; repII. Here is the method: as §4

Assay [9] has as its target T9, Peptide 4-BSA (SMEDYVNFNF-C conjugated to BSA) (human).
T9 peptide: SMEDYVNFNFC(BSA)
In words: ELISA; Ab 0.03125 ug/mL; repII. Here is the method: as §4

In assay [10] the target is T10, BSA (negative control coating) (bovine, UniProt P02769 25-607).
T10 construct: also called Negative control BSA
T10 sequence (P02769 25-607 limits assumed): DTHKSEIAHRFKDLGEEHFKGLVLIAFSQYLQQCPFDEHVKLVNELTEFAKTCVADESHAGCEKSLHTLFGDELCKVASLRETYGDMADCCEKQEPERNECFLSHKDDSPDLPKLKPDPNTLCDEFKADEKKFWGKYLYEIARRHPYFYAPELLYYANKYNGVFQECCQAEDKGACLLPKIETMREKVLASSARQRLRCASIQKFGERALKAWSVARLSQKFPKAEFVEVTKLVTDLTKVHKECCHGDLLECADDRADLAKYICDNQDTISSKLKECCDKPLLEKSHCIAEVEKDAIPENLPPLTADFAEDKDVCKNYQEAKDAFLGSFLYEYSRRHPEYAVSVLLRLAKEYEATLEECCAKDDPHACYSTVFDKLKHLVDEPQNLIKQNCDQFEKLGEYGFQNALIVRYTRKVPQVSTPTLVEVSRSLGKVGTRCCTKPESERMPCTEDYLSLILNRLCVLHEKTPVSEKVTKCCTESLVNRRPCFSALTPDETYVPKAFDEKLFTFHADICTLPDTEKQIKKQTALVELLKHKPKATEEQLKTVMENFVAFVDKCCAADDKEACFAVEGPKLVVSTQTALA
In words: ELISA; Ab 0.03125 ug/mL; repII. The protocol:
as §4

Assay [11] concerns the target T11, antigen peptide-BSA (immunisation peptide #1 MADDYGSESTSSMEDYVNFNF-C conjugated to BSA) (human, extra C-terminal Cys conjugated to BSA).
T11 construct: also called Positive control antigen peptide-BSA; MADDY peptide
T11 peptide: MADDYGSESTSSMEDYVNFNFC
In words: ELISA; Ab 0.03125 ug/mL; repII. The protocol:
as §4

The target in assay [12] is T12, Peptide 3, non-conjugated (SSMEDYVNFN-C) (human).
T12 construct: With the extra C-terminal Cys
T12 peptide: SSMEDYVNFNC
In words: ELISA; Ab 0.03125 ug/mL; repII. The protocol: as §4

Assay [13] addresses T13, Peptide 2, non-conjugated (GSESTSSMED-C) (human).
T13 construct: With the extra C-terminal Cys
T13 peptide: GSESTSSMEDC
In words: ELISA; Ab 0.03125 ug/mL; repII. The protocol:
as §4

For assay [14], the target named is T7, Peptide 1, non-conjugated (MADDYGSEST-C). In words: ELISA, non-conjugated peptide coated. Here is the method:
as §4

The target in assay [15] is T13, Peptide 2, non-conjugated (GSESTSSMED-C). The assay can be described thus: ELISA, non-conjugated peptide coated. Here is the method: as §4
Assay [16] has as its target T4, Peptide 3-BSA (SSMEDYVNFN-C conjugated …). The assay can be described thus: ELISA; Ab 0.5 ug/mL; repI. Here is the method: as §4
The target in assay [17] is T5, Peptide 4, non-conjugated (SMEDYVNFNF-C). In words: ELISA; Ab 0.5 ug/mL; repI. Here is the method: as §4
The target in assay [18] is T6, Peptide 1-BSA (MADDYGSEST-C conjugated …). In words: ELISA; Ab 0.5 ug/mL; repI. The protocol: as §4
Assay [19] deals with T7, Peptide 1, non-conjugated (MADDYGSEST-C). The assay can be described thus: ELISA; Ab 0.5 ug/mL; repI. Here is the method:
as §4

The target in assay [20] is T8, Peptide 2-BSA (GSESTSSMED-C conjugated …). In words: ELISA; Ab 0.5 ug/mL; repI. Here is the method:
as §4

In assay [21] the target is T9, Peptide 4-BSA (SMEDYVNFNF-C conjugated …). The assay can be described thus: ELISA; Ab 0.5 ug/mL; repI. Here is the method:
as §4

Assay [22] deals with T10, BSA (negative control coating). The assay can be described thus: ELISA; Ab 0.5 ug/mL; repI. The protocol:
as §4

Assay [23] concerns the target T11, antigen peptide-BSA (immunisation …). In words: ELISA; Ab 0.5 ug/mL; repI. The protocol:
as §4

Assay [24] addresses T12, Peptide 3, non-conjugated (SSMEDYVNFN-C). The assay can be described thus: ELISA; Ab 0.5 ug/mL; repI. The protocol:
as §4

Assay [25] deals with T13, Peptide 2, non-conjugated (GSESTSSMED-C). The assay can be described thus: ELISA; Ab 0.5 ug/mL; repI. The protocol:
as §4

Where no end group is shown, it is not given here. The star is where a group is joined. Biotin = O=C1N[C@H]2[C@H](CS[C@H]2CCCCC(=O)*)N1

B1: CCR9_HUM2 scFv (humanized anti-CCR9 scFv, SEQ ID NO: 17 with C-terminal 6xHis tag) (scFv)
scFv: QVQLVQSGAEVKKPGASVKVSCTASGYSFTDYIIYWVKQAHGQSLEWMGYIDPNNYNTRYSQKFQGKVTITVDKSSTSAYMELNSLTSDDTAVYYCARDVYWGQGTTVTVSSGGGGSGGGGSGGGGSGGGGSDVVMTQTPLSLSVTPGQPASISCRSSQSLVHSNGKTYLQWYLQKPGQSPKLLIYKVSNRFSGVPDRFSGSGSGTDFTLKISRVEAEDVGVYFCAQSTHVWTFGGGTKVEIKRAHHHHHH
For the molecule B1, the OD450 in [1] came to 1.65 OD; in [2] it was 1.35 OD; in [3] it was 1.73 OD.

B2: anti-CCR9 antibody clone 115 (murine, from hybridoma #115) (antibody, V domains shown)
VH: QVQLKQSGPELVKPGTSVRVSCTASGYSFTDYIIYWVKQSHGRSLEWIGYIDPNNYNTRYSQKFKGKATLTVDKSSTSAFMHLNSLTSDDSAVYYCARDVYWGQGTTLTVSS
VL: DVVMTQTPLSLTVSLGDQASISCRSSQSLVHSNGKTYLQWYLQKPGQSPKLLIYKVSNRFSGVPDRFSGSGSGTDFTLKISRVEAEDLGVYFCAQSTHVWTFGGGTKLEIKR
notes: Mouse IgG1
For the molecule B2, the OD450 in assay [4] was 1.57 OD; in [5], 0.76 OD; in assay [6], 0.01 OD; in assay [7], 0.01 OD; in [8], 0.01 OD; in assay [9] it was 1.53 OD. Besides, the OD450 was 0.01 OD in assay [10]; 1.48 OD in assay [11]; 1.62 OD in assay [12]; 0.01 OD in assay [13]; 2.03 OD in assay [16]; 2.29 OD in [17]. Besides, the OD450 in assay [18] is 0.03 OD; in assay [19], 0.01 OD; in assay [20] it was 0.02 OD; in assay [21], 2.67 OD; in assay [22], 0.02 OD; in assay [23], 2.44 OD. Also, the OD450 in [24] is 1.94 OD; in assay [25], 0.02 OD. Also, the binding result in assay [14] and in assay [15] was “no binding (tested: 1 ug/mL)” throughout.
